For one experiment, the target named is T1, recombinant hSIRPα (human, UniProt P78324).
T1 construct: signal-regulatory protein α (SIRPα), human, recombinant extracellular portion; source: bought: Acrobiosystems
In words: HDX-MS; hSIRPα with Nb S8, S33 or S36; methods not in the text shown. As to conditions: both partners purified.

For experiment [1], the target named is T2, full-length hSIRPα on U2OS cells (Homo sapiens, UniProt P78324).
T2 construct: signal-regulatory protein α (SIRPα), human, full-length, co-expressed with IRES-derived GFP; also called U2OS-hSIRPα; source: U2OS, stably expressing, on live cells
In words: immunostaining of cells or tissue; live-cell immunofluorescence on U2OS cells expressing the target; unlabeled Nbs (1 nM to 100 nM) with Cy5-labeled anti-VHH, 1 h at 37°C. To be noted: one partner purified.

The target in experiment [2] is T3, hSIRPα domain 2 displayed on U2OS cells (Homo sapiens, UniProt P78324).
T3 construct: signal-regulatory protein α (SIRPα), human, domain 2; also called hSIRPαD2; D2; source: U2OS, transiently expressing, on live cells
The description is as above. As to conditions: one partner purified.

Experiment [3] deals with T4, hSIRPα domain 3 displayed on U2OS cells (Homo sapiens, UniProt P78324).
T4 construct: signal-regulatory protein α (SIRPα), human, domain 3; also called hSIRPαD3; D3; source: U2OS, transiently expressing, on live cells
Described as above. As to conditions: one partner purified.

Experiment [4] has as its target T5, hSIRPα-V1 displayed on U2OS cells (Homo sapiens, allele V1, UniProt P78324).
T5 construct: signal-regulatory protein α (SIRPα), human, allelic variant V1; also called hSIRPα variant V1; source: U2OS, transiently expressing, on live cells
The experiment is described as above. To be noted: one partner purified.

Experiment [5] concerns the target T6, hSIRPβ1 displayed on U2OS cells (Homo sapiens, UniProt O00241).
T6 construct: signal-regulatory protein β1 (SIRPβ1), human; source: U2OS, transiently expressing, on live cells
The description is as above. To be noted: one partner purified.

The target in experiment [6] is T7, hSIRPγ displayed on U2OS cells (Homo sapiens, UniProt Q9P1W8).
T7 construct: signal-regulatory protein γ (SIRPγ), human; also called hSIRPy; source: U2OS, transiently expressing, on live cells
The description is as above. To be noted: one partner purified.

In experiment [7] the target is T8, murine SIRPα displayed on U2OS cells (Mus musculus, UniProt P97797).
T8 construct: signal-regulatory protein α (SIRPα), mouse; also called mouse SIRPα; source: U2OS, transiently expressing, on live cells
Described as above. To be noted: one partner purified.

In experiment [8] the target is T9, biotinylated recombinant hSIRPα (extracellular portion) (Homo sapiens, UniProt P78324, biotin (Sulfo-NHS-LC-LC-Biotin)).
T9 construct: signal-regulatory protein α (SIRPα), human, recombinant extracellular portion; also called biotinylated hSIRPα; signal-regulatory protein α; source: bought: Acrobiosystems
Description: BLI; Octet RED96e; biotinylated hSIRPα (5 µg/mL) immobilised on streptavidin biosensors; Nbs 0.625 nM to 320 nM in Octet buffer (PBS, 0.1% BSA, 0.02% Tween-20); association 240 s, dissociation 720 s; 1:1 model, global fit. As to conditions: both partners purified. On the technique in general: In BLI a coated tip is dipped into the sample, and binding shifts an interference pattern.

The target of experiment [9] is T10, hSIRPα on HT1080 hSIRPα knock-in cells (Homo sapiens, UniProt P78324).
T10 construct: signal-regulatory protein α (SIRPα), human; source: HT1080 hSIRPα knock-in (KI) cells, on cells
In words: radioligand binding; antigen excess binding assay: 1 ng (2 MBq/µg) of ^64Cu-hSIRPα-S36K>R Nb on an increasing number of HT1080-hSIRPα cells, 1 h at 37°C; cell-bound radioactivity counted. To be noted: one partner purified.

Where a chain is given by its changes, count along the chain named. Names may count otherwise.

T9 sequence (P78324 31-373): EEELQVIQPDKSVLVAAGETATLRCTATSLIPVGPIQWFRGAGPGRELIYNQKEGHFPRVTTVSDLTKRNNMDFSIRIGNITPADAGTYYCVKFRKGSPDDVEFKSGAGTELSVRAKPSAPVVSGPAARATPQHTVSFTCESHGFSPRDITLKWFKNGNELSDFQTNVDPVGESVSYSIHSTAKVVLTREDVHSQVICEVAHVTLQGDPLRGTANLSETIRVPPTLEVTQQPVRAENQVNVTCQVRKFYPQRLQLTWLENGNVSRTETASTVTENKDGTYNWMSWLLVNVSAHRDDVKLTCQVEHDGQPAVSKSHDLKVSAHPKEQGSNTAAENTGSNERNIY
T6 sequence (O00241 30-398): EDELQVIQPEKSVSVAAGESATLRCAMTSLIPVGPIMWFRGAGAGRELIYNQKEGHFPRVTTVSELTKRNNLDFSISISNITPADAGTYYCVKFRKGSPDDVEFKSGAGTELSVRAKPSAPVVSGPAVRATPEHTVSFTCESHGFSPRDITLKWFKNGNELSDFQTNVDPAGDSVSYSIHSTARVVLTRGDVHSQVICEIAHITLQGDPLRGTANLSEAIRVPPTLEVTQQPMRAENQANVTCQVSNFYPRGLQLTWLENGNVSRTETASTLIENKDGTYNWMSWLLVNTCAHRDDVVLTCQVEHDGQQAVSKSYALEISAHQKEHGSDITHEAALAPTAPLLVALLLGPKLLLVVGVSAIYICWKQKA
T1 sequence (P78324 31-373): as the sequence (P78324 31-373) above
T3 sequence (P78324 whole entry, looked up, tested part not stated): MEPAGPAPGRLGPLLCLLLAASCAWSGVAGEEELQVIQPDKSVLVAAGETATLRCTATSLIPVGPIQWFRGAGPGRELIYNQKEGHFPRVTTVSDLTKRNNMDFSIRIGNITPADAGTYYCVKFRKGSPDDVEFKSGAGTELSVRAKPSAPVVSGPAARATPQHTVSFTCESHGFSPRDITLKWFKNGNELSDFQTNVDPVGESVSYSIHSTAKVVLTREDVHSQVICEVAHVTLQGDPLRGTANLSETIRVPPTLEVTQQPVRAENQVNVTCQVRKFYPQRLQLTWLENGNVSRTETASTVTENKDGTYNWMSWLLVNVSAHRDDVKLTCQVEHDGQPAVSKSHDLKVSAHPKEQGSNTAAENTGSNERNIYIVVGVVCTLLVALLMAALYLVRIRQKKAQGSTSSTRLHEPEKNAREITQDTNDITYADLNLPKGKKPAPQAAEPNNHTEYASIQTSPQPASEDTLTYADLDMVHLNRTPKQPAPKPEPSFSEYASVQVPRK
T4 sequence (P78324 whole entry, looked up, tested part not stated): as above
T8 sequence (P97797 32-513): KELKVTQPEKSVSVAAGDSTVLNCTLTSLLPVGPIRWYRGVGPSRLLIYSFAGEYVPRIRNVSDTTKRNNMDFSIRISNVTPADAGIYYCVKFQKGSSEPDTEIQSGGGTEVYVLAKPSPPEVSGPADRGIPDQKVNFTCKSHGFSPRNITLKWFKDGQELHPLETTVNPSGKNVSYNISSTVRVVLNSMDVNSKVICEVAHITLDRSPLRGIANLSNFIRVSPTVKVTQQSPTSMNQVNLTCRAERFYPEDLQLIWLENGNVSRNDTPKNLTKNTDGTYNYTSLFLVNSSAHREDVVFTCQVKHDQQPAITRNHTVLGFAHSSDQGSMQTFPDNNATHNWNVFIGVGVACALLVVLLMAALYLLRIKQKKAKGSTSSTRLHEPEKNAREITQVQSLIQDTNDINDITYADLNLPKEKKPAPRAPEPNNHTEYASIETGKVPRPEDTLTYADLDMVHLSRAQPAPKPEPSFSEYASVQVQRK
T7 sequence (Q9P1W8 29-387): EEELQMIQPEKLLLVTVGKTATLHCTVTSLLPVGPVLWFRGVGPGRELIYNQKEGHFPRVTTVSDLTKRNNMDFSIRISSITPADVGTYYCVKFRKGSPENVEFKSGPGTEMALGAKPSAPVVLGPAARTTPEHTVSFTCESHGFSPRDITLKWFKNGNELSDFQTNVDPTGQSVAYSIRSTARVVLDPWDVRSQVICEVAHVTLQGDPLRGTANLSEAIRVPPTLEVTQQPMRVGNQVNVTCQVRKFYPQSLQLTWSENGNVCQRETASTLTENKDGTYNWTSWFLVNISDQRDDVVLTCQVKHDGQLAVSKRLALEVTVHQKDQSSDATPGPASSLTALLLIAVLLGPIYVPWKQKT
T10 sequence (P78324 31-504): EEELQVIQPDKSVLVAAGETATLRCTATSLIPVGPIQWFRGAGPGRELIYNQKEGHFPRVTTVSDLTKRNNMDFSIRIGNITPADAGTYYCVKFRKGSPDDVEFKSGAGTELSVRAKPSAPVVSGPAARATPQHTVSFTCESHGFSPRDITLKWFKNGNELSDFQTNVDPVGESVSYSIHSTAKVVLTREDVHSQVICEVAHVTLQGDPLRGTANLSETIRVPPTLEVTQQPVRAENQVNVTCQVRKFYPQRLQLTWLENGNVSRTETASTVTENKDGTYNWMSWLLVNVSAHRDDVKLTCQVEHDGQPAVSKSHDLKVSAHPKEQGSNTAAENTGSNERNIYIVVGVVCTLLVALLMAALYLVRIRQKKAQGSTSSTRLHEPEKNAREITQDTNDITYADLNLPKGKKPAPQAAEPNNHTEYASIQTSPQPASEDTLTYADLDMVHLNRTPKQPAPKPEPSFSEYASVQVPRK
T2 sequence (P78324 31-504): as above
T5 sequence (P78324 31-504): as above

B1: hSIRPα-S36 Nb (VHH)
VHH: EVQLVESGGGLVQPGGSLRLSCAASGFTLDYYAIGWFRQVPGKEREGVSCISSDGGGNTYYADSVKGRFTISRDNAKNTVYLQMNSLKPEDSAVYSCAAGPTYYSGSYCRDPHSDYDYWGQGTQVTVSS
notes: selected against the entire extracellular portion of hSIRPα; also called Nb S36; original S36 Nb; source: E. coli XL-1, purified (IMAC, SEC); not shown: His tag (from the IMAC purification)
Regarding B1, the binding result with recombinant hSIRPα is “binds”; in experiment [1], “binds”; in [2], “binds”; in experiment [3], “no binding (tested: Nbs 1 nM to 100 nM)”; in experiment [4], “binds”; in experiment [5] it was “binds”. The results for the binding result in experiment [6], in experiment [7] and in experiment [8] were “binds”, “no binding (tested: Nbs 1 nM to 100 nM)” and “binds”, respectively.

B2: hSIRPα-S36K>R Nb (VHH)
VHH: B1 VHH with K43R, K66R, K77R, K88R
notes: as the VHH of m9 (S36); source: E. coli, purified
Turning to B2, the binding result in experiment [8] is given as “binds”.

B3: ^64Cu-hSIRPα-S36K>R Nb (VHH)
VHH: B1 VHH with K43R, K66R, K77R, K88R
notes: as the VHH of m15 (S36 with all four lysine residues replaced by arginine); also called ^64Cu-labeled hSIRPα-S36K>R Nb; source: E. coli, purified; chelator conjugated and radiolabeled with ^64Cu
As for B3, the binding result in [9] is “binds”.

These data come from paper PMC10757926, “Two birds with one stone: human SIRPα nanobodies for functional modulation and in vivo imaging of myeloid cells” (Frontiers in Immunology, 2023).
